Reference: the supplement of paper PMC10567573

B1: ZNF449 (parent)
chain: EPHKCPECGKRFLRSSDLYRHQRL

Variants of: B1
Test: protein stability index of a GFP-peptide fusion (GPS, HEK-293T) (PSI 1-6); higher = more stable
Details: c terminus: a fixed tail appended
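Further: lentivirally expressed fusions sorted by FACS into six bins by GFP to DsRed ratio, PSI derived from sequencing read proportions per bin multiplied by bin number.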

Variant	protein stability index
C5K	4
P2M	3.38
P2I	3.18
F12A	1.86
E1Q	3.12
D17N	2.22
D17P	2.38
L13C	4.05
R20C	3.69
R23S	4.11
G9N	3.14
H21W	1.29
S15W	3.52
R20S	4.2
P6N	4.17
C8F	2.72
L18T	2.48
Q22F	3.14
Q22P	2.4
L13H	3.85
H3R	3.29
L13A	4
K10E	3.63
R20I	3.56

Variant	protein stability index
P6L	3.38
Q22R	3.84
L13P	3.74
D17I	2.04
C8R	3.08
L24W	3.01
E1L	2.81
L13N	4.08
R11Q	4.44
H3W	4
C8M	3.05
L24V	3.82
G9W	2.12
L24E	4.95
H3M	3.79
R23C	5.02
H3E	2.99
R23F	3.43
L24M	3.94
Q22I	2.91
K4I	4.71
D17S	2.61
H21N	2.12
S15H	3.64

Variant	protein stability index
K10T	3.5
K10H	3.15
C5E	3.56
Y19H	3.99
R11A	4.71
H3Y	4.7
R14H	3.97
Q22M	3.83
L18A	3.08
Q22D	2.39
E7G	3.74
E7C	4.37
S16N	3.7
K4S	4.13
L24P	3.85
P2Q	3.53
R20T	4.01
F12V	1.95
P2F	3.17
H3D	3.23
C8T	3.36
R14V	3.2
Y19E	4.63
R11C	4.31

Variant	protein stability index
P2D	4
P6H	3.91
Y19Q	3.84
L24N	4.29
L18G	3.05
H21Q	1.91
K10D	2.44
Q22G	2.83
K10V	3.31
G9E	3.15
R11S	5.13
C8Y	3.24
S15D	3.81
R14W	2.75
R11T	5.01
D17K	2.33
G9H	3.08
R14N	4.78
C8Q	3.43
H21R	2.07
G9C	2.18
H3I	4.1
K4Y	4.47
D17F	1.68

Variant	protein stability index
F12E	2.34
H3C	3.58
K10W	2.13
L18P	2.37
R14A	3.89
E1S	2.73
H21L	2.4
R20K	4.43
P6E	4.19
R14G	2.33
F12M	2.45
G9I	2.65
R23Y	3.75
E7I	3.3
H3G	3.02
K4Q	4.57
P2T	3.52
D17E	3.82
R20W	3.6
G9S	3.36
F12N	2.06
H21Y	2.1
L18R	3.3
S15L	3.86

Variant	protein stability index
S15I	3.27
S16H	3.55
L18V	3.12
R11K	4.16
P2V	3.02
R20D	4.5
H3V	3.72
E1I	2.6
Q22S	3.16
L13Y	4.09
F12Q	2.03
P2S	4.41
S15Q	4.11
R14Q	3.36
Y19A	4.05
F12H	3.73
D17Q	2.59
P6T	3.52
L24Q	4.6
K10R	3.55
E7Q	3.62
G9V	2.54
Q22L	3.93
E7D	4.12

Variant	protein stability index
Y19D	4.68
L24S	4.4
R23E	4.47
P6W	3.31
E7V	3.44
K10S	3.21
Y19I	3.86
Q22V	3.76
L13E	4.78
P2H	3.95
P6V	3.57
R23H	3.84
F12L	2.54
F12P	2.51
E1N	2.83
R14I	2.95
R11D	4.27
S15N	3.51
R20P	2.88
C8L	3.01
Q22A	3.04
R14K	4.11
R14E	3.84
G9R	2.31

Variant	protein stability index
K4A	4.5
K10L	3.65
H21D	2.79
L13T	4.46
R14Y	3.59
Y19C	4.7
H21C	2.15
R20V	4.02
C5F	2.5
L18W	3.37
H21G	1.84
G9L	2.3
E1Y	3.3
L13K	4.5
E1P	3.19
E1C	2.14
L24A	3.83
R23I	3.01
S16A	3.82
L13Q	4.66
G9Y	2.8
H21S	2
R11G	4
R11N	4.24

Variant	protein stability index
E7W	4.05
P2L	3.63
E1T	2.6
L18E	2.92
F12C	1.67
S15G	3.53
Q22N	3.36
H21F	2.25
E1W	3.2
R14T	4.61
R11V	4.57
E7S	4.11
S16T	3.94
P6Q	3.68
G9A	2.24
K4T	4.46
S15Y	4.03
R11W	4.26
S16M	3.4
L18C	3.68
E7H	3.65
E1M	2.89
R23K	4.27
K4C	3.86

Variant	protein stability index
R20A	4.66
H21T	2.34
C8S	3.37
L24F	3.23
P6I	3.23
R23P	2.98
P6R	3.1
C8E	4.02
C8G	3.3
Y19R	3.55
R11E	4.84
C8K	3.75
D17H	2.87
P6G	3.5
K10C	2.48
L24Y	3.31
E7P	2.21
C5V	2.87
L18S	3.15
H3N	4.49
R11Y	4.39
P2Y	3.21
L18M	3.46
S16C	3.62

Variant	protein stability index
E7F	3.25
F12D	2.13
K4G	3.68
L24R	3.84
S16G	3.54
L13F	3.35
F12T	2.32
L13W	3.55
S15A	4.16
H3A	3.25
P2R	3.54
P2G	3.81
K4R	3.71
C5Q	3.6
R14P	2.2
G9D	2.99
R23Q	4.43
S16Y	3.05
E7T	3.82
P6K	3.62
R20Y	3.32
Y19P	2.62
C5W	3.01
G9Q	3.16

Variant	protein stability index
E1K	2.79
F12Y	2.72
D17L	2.81
K4E	4.73
R23V	3.16
R14S	4.61
L13D	4.82
R23A	3.74
S16D	4.06
R20N	4.21
P2C	3.58
C5Y	3.14
C5S	3.44
S16Q	4.27
H21K	2.67
F12I	2.1
C8P	3.51
C5P	3.07
Y19V	3.89
K10A	3.97
C5I	3.26
S15P	3.25
K4W	3.65
R20G	3.21

Variant	protein stability index
F12S	1.86
S15T	3.9
L13S	3.92
S16P	2.99
F12R	2.15
Q22E	3.92
C5D	3.69
L24I	3.63
R20M	3.83
C5A	3.69
L24H	4.18
H3T	3.9
K10P	2.33
K10Q	4.08
S15M	3.98
H21A	1.62
L24K	4
R14F	3.76
R11H	4.07
C5L	3.3
K10N	2.52
R23W	2.94
H21M	2
H3Q	3.31

Variant	protein stability index
H21I	1.64
R11F	4.41
H21P	2.14
Y19G	2.92
P6S	3.69
R20F	3.42
Q22K	3.28
G9M	2.72
S16W	2.66
S15K	4.27
R20L	3.55
E1R	3.37
S16K	3.81
Y19T	3.6
L13R	3.99
E1D	4.06
E7A	3.29
S15E	4.54
F12K	2.88
Y19K	3.92
S15F	3.51
L18K	2.74
